Among the data in patent CN114958811A are IC50 values, retold here.

Where two headings read alike, the source gives them in different places.

For assay [1], the target named is RBD-Fc (义翘神州 40592-V05H) (SARS-CoV-2) (UniProt P0DTC2).
For assay [2] the target is unchanged. The source holds these as a separate data set.

Usually IC50 stands for the concentration that inhibits the measured activity by half. A lower IC50 goes with inhibition by little substance. On to “hACE2-Fc融合蛋白 (fusion of the human ACE2 extracellular domain with the Fc fragment of human IgG1) (Fc fusion)”, for which the concentration for half-maximal inhibition (IC50) turned out to be 5.02 nM in assay [1] and 7.6 nM in assay [2].
